First the molecules themselves.
B1: Core αB (cABC, residues 68–153) (domain or fragment, human, UniProt P02511 68-153, looked up)
chain: MRLEKDRFSVNLDVKHFSPEELKVKVLGDVIEVHGKHEERQDEHGFISREFHRKYRIPADVDPLTITSSLSSDGVLTVNGPRKQVS
notes: αB-crystallin, human, α-crystallin core domain, residues 68-153; also called αB core; core of αB

Where no end group is shown, it is not given here. [ ]: non-standard residue; d: D form.

Data set [1] deals with the molecule itself. Nature of the data set: native MS; core domains analysed alone, 10 μM, 200 mM ammonium acetate pH 6.9, Synapt G1.
Data set [2] concerns the target B1. Description: native MS; competition: core domain 10 μM mixed with an L-Ser and a D-Ser peptide (one with added glycines), 40 μM each (4:1 peptide/domain), 200 mM ammonium acetate pH 6.9; monomeric species, 5+, 6+, 7+ charge states quantified. The note with it: both partners purified.
The target of data set [3] is core αA (cAAC, residues 59–153) (human, UniProt P02489 59-153, some population of BME-adducted protein). The description is as above. The note with it: both partners purified.
core αA (cAAC, residues 59–153), sequence (P02489 59-153): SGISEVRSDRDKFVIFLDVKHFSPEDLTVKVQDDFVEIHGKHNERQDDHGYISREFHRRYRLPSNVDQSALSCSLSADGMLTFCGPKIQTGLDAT
Data set [4] deals with the molecule itself. Nature of the data set: native MS; full-length αB and mutants, 15 μM by monomer, 200 mM ammonium acetate pH 6.9, QExactive Orbitrap; intact spectra and CID with charge deconvolution (UniDec) to oligomeric distributions.
Data set [5] addresses core αA (cAAC, residues 59-153) (human, UniProt P02489 59-153, some population of BME-adducted protein). Nature of the data set: native MS; competition: 10 μM core domain with 40 μM each of L-Ser and D-Ser peptide, 200 mM ammonium acetate pH 6.9; monomeric species, 5+, 6+ and 7+ charge states; approximate dissociation constants calculated from abundance ratios (El-Hawiet et al.). As to conditions: both partners purified.

core αA (cAAC, residues 59-153), sequence (P02489 59-153): as above

A word on the stoichiometry N: it is a count of units in the complex or per binding partner. Consider B1, for which, in data set [1], the “stoichiometry N” value was found to be 2.
Regarding GERAIPVSREG [G-Ct-G peptide GERAIPVSREG with L-Ser (appended-glycine L-isomer)], the binding result in data set [2] and in data set [3] was “binds” in each case.
As usually defined, the Kd is the concentration at which binding is half-saturated. With ERAIPVSRE [Ct peptide ERAIPVSRE with L-Ser (canonical all L-amino acid form)], the dissociation constant Kd in data set [2] is 115 µM; in data set [3], 48 µM.

B2: Full-length αB-crystallin (WT) (natural protein, human, UniProt P02511 1-175, looked up)
chain: MDIAIHHPWIRRPFFPFHSPSRLFDQFFGEHLLESDLFPTSTSLSPFYLRPPSFLRAPSWFDTGLSEMRLEKDRFSVNLDVKHFSPEELKVKVLGDVIEVHGKHEERQDEHGFISREFHRKYRIPADVDPLTITSSLSSDGVLTVNGPRKQVSGPERTIPITREEKPAVTAAPKK
notes: αB-crystallin, human, full length; Polydisperse oligomers; also called WT αB
With B2, in data set [4], the binding result is given as “binds”.

B3: Full-length αB-crystallin S59D (phosphomimic) (natural protein, human, UniProt P02511 1-175, looked up)
chain: MDIAIHHPWIRRPFFPFHSPSRLFDQFFGEHLLESDLFPTSTSLSPFYLRPPSFLRAPDWFDTGLSEMRLEKDRFSVNLDVKHFSPEELKVKVLGDVIEVHGKHEERQDEHGFISREFHRKYRIPADVDPLTITSSLSSDGVLTVNGPRKQVSGPERTIPITREEKPAVTAAPKK
notes: αB-crystallin, human, full length, with S59D; also called αBS59D; source: expressed and purified in the same manner as WT
B3: the “stoichiometry N” value in data set [4] is approximately 18.

B4: Full-length αB-crystallin D109A (isoAsp-mimic) (natural protein, human, UniProt P02511 1-175, looked up)
chain: MDIAIHHPWIRRPFFPFHSPSRLFDQFFGEHLLESDLFPTSTSLSPFYLRPPSFLRAPSWFDTGLSEMRLEKDRFSVNLDVKHFSPEELKVKVLGDVIEVHGKHEERQAEHGFISREFHRKYRIPADVDPLTITSSLSSDGVLTVNGPRKQVSGPERTIPITREEKPAVTAAPKK
notes: αB-crystallin, human, full length, with D109A; source: expressed and purified in the same manner as WT
Turning to B4, the binding result in data set [4] is listed as “binds”.
On to ERAIPV[dS]RE [C-terminal palindromic peptide of αA-crystallin with D-Ser-162 (D-peptide)], for which, in data set [5], the Kd is 660 µM.

The values above are taken from article PMC6514633, “Structural and functional consequences of age-related isomerization in α-crystallins” (The Journal of Biological Chemistry, 2019).
